Measurements: patent publication US20230416345A1, “NEW TYPE II COLLAGEN BINDING PROTEINS” (Navigo Proteins GmbH, priority 2020, published 2023)
Each block holds one binder with its values, some of them ahead of it.

Tests used:
[1] = target: human type II collagen (type II collagen alpha I chain) (human) (UniProt P02458); experiment: SPR, Biacore 3000, Langmuir 1:1 model
[2] = target: human type II collagen (type II collagen alpha I chain) (human) (UniProt P02458); experiment: ELISA, collagen coated on the plate, dilution series of the binder, detection via StrepTag, A 450-600 nm
[3] = target: human type II collagen (type II collagen alpha I chain) (human) (UniProt P02458); experiment: ELISA (KD determination by ELISA, Example 5)

- Kd [1]: < 0.5 nM
- Kd [2]: 0.3 nM
B1: CID 212001 (SEQ ID NO: 41), tetramer of SEQ ID NO: 2 (designed binder, not shown: small tags and cut ends)
chain: IAAKFDEAQSAADSEILHLPNLTEQQRHYFRRWLSDDPSVSTHILTQAQHLNDDQAPKIAAKFDEAQSAADSEILHLPNLTEQQRHYFRRWLSDDPSVSTHILTQAQHLNDDQAPKIAAKFDEAQSAADSEILHLPNLTEQQRHYFRRWLSDDPSVSTHILTQAQHLNDDQAPKIAAKFDEAQSAADSEILHLPNLTEQQRHYFRRWLSDDPSVSTHILTQAQHLNDDQAPKSAWSHPQFEK

- Kd [1]: 127 nM
- Kd [2]: 8.06 nM
B2: CID 211999 (SEQ ID NO: 38), dimer of SEQ ID NO: 2 (directly joint monomers) (designed binder, not shown: small tags and cut ends)
chain: IAAKFDEAQSAADSEILHLPNLTEQQRHYFRRWLSDDPSVSTHILTQAQHLNDDQAPKIAAKFDEAQSAADSEILHLPNLTEQQRHYFRRWLSDDPSVSTHILTQAQHLNDDQAPKSAWSHPQFEK

- Kd [1]: 180 nM
- Kd [2]: 6.38 nM
B3: CID 212000 (SEQ ID NO: 39), dimer of SEQ ID NO: 2 with linker between the monomers (designed binder, not shown: small tags and cut ends)
chain: IAAKFDEAQSAADSEILHLPNLTEQQRHYFRRWLSDDPSVSTHILTQAQHLNDDQAPKGGGGSGGGGSGGGGSGGGGSIAAKFDEAQSAADSEILHLPNLTEQQRHYFRRWLSDDPSVSTHILTQAQHLNDDQAPKSAWSHPQFEK

- Kd [1]: 169 nM
- Kd [3]: 460 nM
B4: 210987 (SEQ ID NO: 36) (designed binder, not shown: small tags and cut ends)
chain: IAAKFDEAQQAAFYEILHLPNLTEQQRNYFIQWLRDDPSVSLEVLGTAQRLNDSQAPKIAAKFDEAQQLAFYQILHLENLTEEQRNAFIQSLRDDPSVSLEVLGEAIKLNLSQAPK
